The values that follow come from patent US20040265906A1.

Common to all, as to test: cell-based or functional assay
In test [1] the target is H3 peptide segment (first 30 amino acids of H3) of the phosphorylation indicator, phosphorylated by Msk-1.
For test [2], the target named is H4 peptide of the H4 acetylation indicator, acetylated by CBP.
Test [3] deals with H3 peptide (first 30 amino acids of H3) of the H3 methylation indicator, methylated by G9a.

On to “14-3-3 domain of the histone 3 phosphorylation indicator”, for which the YFP/CFP emission ratio increase (FRET) on in vitro phosphorylation by Msk-1 in test [1] is 25%. Turning to “bromodomain of the Drosophila transcription factor TAF250 in the H4 acetylation reporter”, the YFP/CFP emission ratio increase (FRET) on in vitro acetylation by CBP + acetyl-CoA in test [2] amounted to 11%. Regarding “chromodomain of HP1 in the H3 methylation indicator”, the YFP/CFP emission ratio increase (FRET) on in vitro methylation by G9a + SAM in test [3] was found to be 20%.
